Laboratory results taken from the supplement of paper PMC9170038.

Columns and labels:
Conditions in all cases: FMN input: 0 or 200 uM; Eterna round: R93 (includes R88 designs)
[1] = tested on: MS2 coat protein; experiment: apparent KD of MS2 coat protein, switch ON state; designed switch direction (-1 OFF switch, 1 ON switch): 1; higher = weaker reporter binding
In short: (§1)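 Designed RNA switches were transcribed on-chip from Illumina sequencing clusters. SNAP-549-labelled MS2 coat protein was titrated onto them in twofold steps from 0.7 or 1.5 nM to 3 µM in 100 mM Tris-HCl pH 7.5, 80 mM KCl, 4 mM MgCl2, either without or with constant ligand. Apparent KD reflects the per-design median of normalised cluster binding-curve fits.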

[2] = tested on: MS2 coat protein; experiment: apparent KD of MS2 coat protein, switch OFF state (with FMN for OFF switches, without FMN for ON switches); designed switch direction (-1 OFF switch, 1 ON switch): 1; higher = weaker reporter binding
In short: as §1

[3] = tested on: MS2 coat protein; experiment: apparent KD of MS2 coat protein, switch ON state; designed switch direction (-1 OFF switch, 1 ON switch): -1; higher = weaker reporter binding
In short: as §1

[4] = tested on: MS2 coat protein; experiment: apparent KD of MS2 coat protein, switch OFF state (with FMN for OFF switches, without FMN for ON switches); designed switch direction (-1 OFF switch, 1 ON switch): -1; higher = weaker reporter binding
In short: as §1

Sequence	apparent KD of MS2 coat protein [1]	apparent KD of MS2 coat protein [2]	apparent KD of MS2 coat protein [3]	apparent KD of MS2 coat protein [4]
AAAAGACAUGAGGAUCACCCAUGUCUUCGGACAUGAGGAUAUGUACAGACUUCGGUCUGUACAGAAGGCAUAAAAA [SS1 - 1062]	21.1 nM	82.2 nM		
AAAAGACAUGAGGAUCACCCAUGUGAAAACGUACAAGGAUAUGUGUGGAAACCGUACUAUACAGAAGGUGUCUGUC [SS1 - 87]	63 nM	30.2 nM		
AAAAGACAUGAGGAUCACCCAUGUGAAAACGUGCGAGGAUAUGUGUGGAAACCGUACUAUACAGAAGGCGCGUGUC [SS1 - 84]	22.2 nM	33.9 nM		
AAAGAAUGAAGGCAGGAUAUGUGAAAAAAAACAUGAGGAUCACCCAUGUAAUAAAUGGGUACAAAACAGAAGGGCCAAGAAAUAA [SS 2 Tesla 2]	170 nM	398 nM		
GGUUGAUGAGGAUAUACAUGAGGAUCACCCAUGUGAGAGAAAAAAGUGAGAAAGAAAAGUAGAAGGCAUUGACG [salish99-ex3-60]			37.7 nM	69.4 nM
GGUUGGCAAGGAUAUACAUGAGGAUCACCCAUGUGAGAGAAAAAAGUGAGAAAGAAAAGUAGAAGGUGUUGACG [salish99-ex3-75]			26.8 nM	53 nM
GGUUGGCGAGGAUAUACAUGAGGAUCACCCAUGUGAGAGAAAAAAGUGAGGAGGAGAAGUAGAAGGCGCUGACG [salish99-ex3-17]			18.9 nM	3.7 nM
GGUUGGCGAGGAUAUACAUGAGGAUCACCCAUGUGAGAGAAAAAAGUGUGAAAGAAAAGUAGAAGGCGCUGACG [salish99-ex3-54]			31 nM	13 nM
GGUUUGCAAGGAUAUACAUGAGGAUCACCCAUGUGAGAGAAAAAAGUGAGAAAGAAAAGUAGAAGGUGCGGACG [salish99-ex3-121]			22.3 nM	62.7 nM
GGUUUGCUAGGAUAUACAUGAGGAUCACCCAUGUGAGAGAAAAAAGUGAGAAAGAAAAGUAGAAGGAGCGGACG [salish99-ex3-122]			68.2 nM	66.4 nM
GUGUACAGAGGAUAUACAUGAGCAUGGAAACAUGCAAGAUCACAUGAGGAUCACCCAUGUAGAAGGCUGUACAC [Ex2: 733]			50.3 nM	30.8 nM
GUUAUGUGAGGAUAUAUGUAGGAAACUACAUUAAGGGUAUCACAUGAGGAUCACCCAUGUAGAAGGCGCGUAGC [Ex2Try2_Neo]			283 nM	256 nM
UAAAAGUGAGGAUAUGUCAAAAGUCACAAAAGUGACAAAAGACAGAAGGCACAUGAGGAUCACCCAUGUGAAAU [Mat - Exaclusion 4 - Eli mod - D56]			23.3 nM	32.2 nM
UCCGCACAUGAGGAUCACCCAUGUCAGGAUAUACAAGAAAAUCAGGCUAAUGCCUGAAGUAGAAGGGACGAGGA [Armaingean]			27.7 nM	16 nM
UCCUGACAUGAGGAUCACCCAUGUCAGGAUAUAGUAUGAAAAAAAAAAAAAAAAAAUACUAGAAGGGACAUGGG [Design 12: Super Stable Short Helix 3]			29.2 nM	21.6 nM
